Source: US20180010135

Test system: phiC31 integrase (Streptomyces phage phiC31?)
Assay: cell_activity
Conditions: in E. coli, 1% L-arabinose, 32 C, 60-120 min; intramolecular attB x attP recombination giving minicircle

**Q.** Which activity (% recombination) does the source give for “phiC31 attB x attP sites flanking expression cassette (pBAD.phiC31.RHB)” here?
**A.** > 97
